The text below walks through data of the DeepSol protein solubility set.

This data set is described as follows: soluble on expression in E. coli; label from the status in PepcDB or PDB records.
For the sequence “MSLLEVKNLRIEYPSRHGVHAAVKSLTLDIQRGEIVGVVGESGAGKSTVGNAVIDLLSPPGTIAGGEVYLNGEKISGLSPQAMREVRGSKIGFIFQDPMTSLNPLFTVEHQLTETIHANMQVSAEEAYQRALSLMKQVGIPQPENRLKQYPHQFSGGMRQRVVIAIALAGEPDLIIADEPTTALDVSIQDQILNLIRELCKKNNVGCMLVTHDMGVVSNVTDRVAVMYRGDLVEFGPTAKVLGTPEHPYTRSLISAVPRSDRKLDRFPLVSYIEEAKELKPLDVKSHWLGQSQDHRKYTGPLLKVENVNLRFVTKDSLFESRREYVQASNNVSFAVHEGETFGLVGESGSGKSTIARVIAGLYQPNAGRVTFEGIDLTALKSEHERRPLRRQMQMVFQNPYTSMNPRMKIFDIIAEPIRFHKLTRSESETRQIVNDLLEHVGLGKMAGLKYPHEFSGGQRQRISIARALATRPRLLICDEPTSALDVSVQAQILNLLKDLQDELNLTMLFISHDLPVIRQMCDRVGVMQMGTLLEVAPTEQLFTDPQHEYSKKLISLMPEFTGLRESTTAA”, the “soluble on expression in E. coli” value is recorded as “not soluble”. Regarding “MSLLFDQGHAYQPLAEVLRPQTLTDYIGQQHILGPGKPLRQTLENRNLHSMIFWGPPGVGKTTLANVISNTVEARFEVLSAVQAGVKDIKLVAEKAKQAQAYGEVTVLFVDEVHRFNKAQQDAFLPYVENGTFIFIGATTENPSFELNSALLSRARVYVLKSFTDDDFRQLWQRARSLDERIAKLAIENDALDGLIQFADGDARRFLNFLEIAIDFFTSEAVITLDDIRELLSHQPRRFDKGGENFYDQISAFHKSVRGSSPDGALYWLCRMLDGGIDPLYLARRMVRIASEDIGNADPRALTLALNAWDSQERLGSPEGELSLAQAAVYLASAPKSNAVYTAFNAMMSAVRSSHSAEVPLHLRNAPTSLMKDLDYGRDYRYAHDEPHAYAAGEVYLPDHMQGQRFYDPVDRGLEQKIRQKLDFLKQLDEQAQNQEDEGHHHHHH”, the “soluble on expression in E. coli” value is given as “soluble”. Turning to “MSLLRLTSVVGIGHAEDPNPRFRKQMEDVCVMIDKLGNSHSTGFFAIYDGHGGQEAARIAGDNLHRYLLEDLLNQKLEHLLEADPLANQSMSQPTCSQAGSKLSSDGHNLSGNPSGVPKDSQLTNATMSSGVRTGTFSKDKISPSAKVRVPVPPNEPSKLGAIIRKAIQRTDDVLRQKNVLYVGCTALIALVTKYTIEFASVGDSRAVISINGTAYRCTEDHKASDKLEIDRIKSLGGTVIFGRVNGFISVSRALGDHCIKNLVTCDPFLRSYPRYPTPDSVGVTASSTNELDEFIIMACDGVWDVVTDQQSVDTVRKCLKETGSPQKAAFELKNLAIRSGTQDNVSVLVLLLREINKWEGHHHHHH”, the “soluble on expression in E. coli” value was “soluble”. In the case of “MSLLSIIPISAGIPLTETEPKQKWLEEWSKQLFVKVSIDSEYGWGEVLPAAFNSPALYADIVKRLEPSLNGMEISEPGIIWEKLRKLTFSGGYGPVIGAISGVDIALWDLKAKLSKLYLGDIFGKNEQKIARYASLSRYANYEAVIRASKNIVESGFKAIKLHQTKDDTLESVKRFREEIGYGVDLMVDLNCAMNIDEAIKFANSVQRYELKWVEEPIWPPDDLASLKKINDIVPVAAGENFFDFFKFEDAVHLEALTYYQPDVTKVGGLTPTLKILDLLKKNHEQVAFHNRPHNGWIGIFASIAAARMNGVDALIETPPNGVPSQYFRYNAMITSEVIAPNGVGLSIEPIEPLPQPKDEKILIFHDEGHHHHHH”, the “soluble on expression in E. coli” value is given as “not soluble”. As for “MSLMIVYKGEKMQFIRVNTLKINPEVLKKRLENKGVVLEKTFLDYAFEVKKSPFSIGSTPEYLFGYYMPQSISSMIPPIVLNPREDDFILDMCAAPGGKTTHLAQLMKNKGTIVAVEISKTRTKALKSNINRMGVLNTIIINADMRKYKDYLLKNEIFFDKILLDAPCSGNIIKDKNRNVSEEDIKYCSLRQKELIDIGIDLLKKDGELVYSTCSMEVEENEEVIKYILQKRNDVELIIIKANEFKGINIKEGYIKGTLRVFPPNEPFFIAKLREGGSHHHHHH”, the entry is “soluble”.

Regarding “MSLMKSSPLVRQASTEKESTKSENLTEYLIEAIVEGQLAPGSKISEPELAKQFQVSRGPLREALMRVEGLGLIERIPHIGARVIQLSPTKLVELYAVREALEGMAARLAARNITEIELAGLESLLSTHSTHIDQVEGASYFHQQGDFDFHYRIIQACRNQQLIGLLCDELYHLLRMYRYQSPRSHSRPVEALEEHKFILRAIRQRDEELAEMLMRRHISRSRQLIEQQIMLDAQQQGEGHHHHHH”, the “soluble on expression in E. coli” value is “soluble”. To “MSLMPPFLRILGIETSCDETAASIVVRHADGRGEIVSDVVLSQLEEHSAYGGVVPEIAARAHVEALDTLVEEALDQAGVKLADVDAIAATSGPGLIGGLLVGLMTGKAIAKAAGKPLYAINHLEGHALTARLTDGLSFPYLMLLVSGGHTQLVLVRGVGEYERWGTTIDDALGEAFDKTAKLLGLPYPGGPAVENAAAKGDPDRFPLPRPMVGEARLDFSFSGLKTAVRQAATAIAPLSEQDIADICASFQKAVSRTLKDRIGRGLARFKVEFPHINGEPALVVAGGVAANQEIRQTLQALCDTHGFRFVAPPHRLCTDNAAMIAWAGLERMAEGRQADALEVAPRSRWPLDGSAETLIGFGKRGAKAEGHHHHHH” belongs “not soluble”; to “MSLMVIRPVERSDVSALMQLASKTGGGLTSLPANEATLSARIERAIKTWQGELPKSEQGYVFVLEDSETGTVAGICAIEVAVGLNDPWYNYRVGTLVHASKELNVYNALPTLFLSNDHTGSSELCTLFLDPDWRKEGNGYLLSKSRFMFMAAFRDKFNDKVVAEMRGVIDEHGYSPFWQSLGKRFFSMDFSRADFLCGTGQKAFIAELMPKHPIYTHFLSQEAQDVIGQVHPQTAPARAVLEKEGFRYRNYIDIFDGGPTLECDIDRVRAIRKSRLVEVAEGQPAQGDFPACLVANENYHHFRVVLVRTDPATERLILTAAQLDALKCHAGDRVRLVRLCAEEKTAEGHHHHHH”, “soluble”; to “MSLMYPLVLDLAADGIPVTVTCRVLGFSTQAFYKWRKAPLTQRDWDDAHLINAARDIHADDPAFGYRFIADELPGRGITAGENRVARLCSQERIWSIFAKKRGLNRRSGPPVHDDLVERQFSAQAANQVWLTDITEHRTNEGKLYLCAIKDVYSNRIVGYSMDSRMKSSLAVAALDHAVALRSPVATIVHSDRGSQFRSRKFVRALSRNGLQGSMGRVGACGDNAAMESFFALLQRNVLDRKRWSTRAELRLAIVTWIERTYHRRRRQRALGRLTPIEFELLRTSVATAAEGHHHHHH”, “not soluble”.

Take “MSLNAGAVKLDESMTPMQAMAAVAAECVDHIARNAAVLAEVDTLGVYRAGTPEHVHQLRVGVRRLRSAWRLFDGWIADPSETLAQGARTHFSAFGMARDQDVLADTIMPLLARAGMPALPAEAAPSNDNAQSLAADRAFQGWLLELLAWSLDVPAEAAPPALRKRLTGRLRRWHLKVIDEGLRFGALELEARHELRKRVKRLRYGLSFAESLLPAARLRTYRKQLARVQDLLGEINDLAVARDYYQAALQAHPQAWFAVGWIGARLDGLTPQAQEAFDQLAHAKPFWKEGHHHHHH”: the “soluble on expression in E. coli” value is “not soluble”.

With “MSLNAHLSAAWPVPVSVAPDALAEIQADFSREWLRLCDEAKRGVLGAPADKRFAGAAWLDDRQRLLMAHAYLLSARAMARLVEAAQVSEPMRNRLRFSVMQWVDAMSPANFLAFNPDAQRAIVESAGRTLQEGMANLLNDIQRGRISQTDETQFEIGRNVATTPGHVVFENSLMQLIQYAPQTAKVCERPLVIVPPNINKYYILDLQPENSFVRYAVEQGHTVFIISWRNPLAADTDGVDTATWSEYLDDAVLKALAVASDISGQPQVNALGFCVGGTMLASALALAQARGERPVASLTLLTSLLDFHDTGILKVFVDEAHALLRDHQYGQRGLMPARDLATTFSFLRPNELVWNYVVSNYLKGKTPPAFDLLFWNADSTNLPGPFFAWYFRNTYLENNLKVPGRARAAGVPLDLTRLDMPAYLYGSREDHIVPWPSAYASTQLLRGPMRFVLGASGHIAGVINPPAKQRRSYWVNESAGEGHHHHHH”, the “soluble on expression in E. coli” value was “not soluble”. “MSLNAKPKDTVIANARIVLADRVIEQGWLALANGRVAEIGEGRAPAGAEDAGGDLIMPGLIELHTDHLEAHYVPRPKVFWNPVAAVVSYDGQLATSGITTVFDSLRVWREDGAEEVDGRAGVLAAAITTARDADLLRADHFLHLRCEIPMPSVVEEAKELIDRPDVKLMSLMDHTPGQRQFRDEGKLRDYYRGKNGGKTDAQLDELFAKRFEYQKAYAATNMREIVALAHQYNIPLASHDDTTEENVADAVRDRVSVAEFPTTLEAARGLHQAGIDILMGAPNVVRGGSHSGNIAAVDLAREGLLDILSSDYIPSSLLMAALQLPEHVPAISLPAAVRTVTKAPAEAVGLSDRGEIAVGKRADLIRVHIAGSVPVVRSVWREGGRVAEGHHHHHH”: the “soluble on expression in E. coli” value is “soluble”.
